Target: Aβ1-40 (human)
Assay: ELISA

Kd: 2 nM
Substance: clusterin (human plasma apolipoprotein J) (from UniProt P10909 23-227; P10909 228-449) (natural protein)

From PMC8440498
